B1: unnamed (parent)
chain 1: QNSLSTEWSPCSVT
chain 2: not shown
chain 3: not shown

The test covers variants of B1. The experiment in a line: binding inhibition (competition) assay with biotin-labeled HA 306-318. The settings on record: peptides tested at 0 to 100 µM, read off a plot.
For the variant chain 1 S3A, the IC50 was found to be 1.1 µM.

Consider chain 1 E7A, for which the 50% inhibitory concentration (IC50) was found to be 3.5 µM.

For the variant chain 1 Q1A, the IC50 worked out at 1.2 µM.

As to chain 1 V13A, the IC50 came to 0.5 µM.

Take chain 1 S12A: the IC50 was 0.8 µM.

chain 1 T14A: the IC50 was determined as 0.8 µM.

As to chain 1 C11A, the concentration for half-maximal inhibition (IC50) was 0.8 µM.

In the case of chain 1 T6A, the concentration for half-maximal inhibition (IC50) was found to be 1.3 µM.

On to chain 1 S5A, for which the IC50 came to 0.95 µM.

With chain 1 W8A, the IC50 turned out to be 1.5 µM.

Consider chain 1 P10A, for which the half-maximal inhibitory concentration (IC50) stood at 7.8 µM.

On to chain 1 N2A, for which the IC50 was determined as 2.7 µM.

The IC50 is the concentration that gives 50% inhibition.

The values are drawn from PMC4077652, “An Unstable Th Epitope of P. falciparum Fosters Central Memory T Cells and Anti-CS Antibody Responses” (PLoS ONE, 2014).
